Laboratory results: the supplement of paper PMC12855868

B1: library; numbered along this chain (parent)
chain: MAAAGGARLLRAASAVLGGPAGRWLHHAGSRAGSSGLLRNRGPGGSAEASRSLSVSARARSSSEDKITVHFINRDGETLTTKGKVGDSLLDVVVENNLDIDGFGACEGTLACSTCHLIFEDHIYEKLDAITDEENDMLDLAYGLTDRSRLGCQICLTKSMDNMTVRVPETVADARQSIDVGKTS

Variants of: B1
Experiment: scaled log2 fold change in cell abundance, elesclomol vs control (0 = silent mean, 1 = nonsense mean) (scaled log2 ratio); higher = higher viability under elesclomol (loss of FDX1 cuproptosis function)
Details: glucose 10 mM
[1] = with ABC1 FDX1 KO, elesclomol 5 nM, 14 days
[2] = with HEK293T FDX1 KO, elesclomol 40 nM, 11 days
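Further: variant abundance is its share of total variant reads in each endpoint sample, from next-generation sequencing of the integrated ORF PCR-amplified out of genomic DNA.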

Row | Variant | scaled log2 fold change [1] | scaled log2 fold change [2]
1 | MAAAGGARLLRAASAVLGGPAGRWLHHAGSRAGSSGLLRNRGPGGSAEASRSLSVSARARSSSEDKITVHFINRDGETLTTKGKVGDSLLDVVVENNLDIDGFGACEGTLACYTCHLIFEDHIYEKLDAITDEENDMLDLAYGLTDRSRLGCQICLTKSMDNMTVRVPETVADARQSIDVGKTS | 0.038 | 0.0184
2 | MAAAGGARLLRAASAVLGGPAGRWLHHAGSRAGSSGLLRNRGPGGSAEASRSLSVSARARSSSEDKITVHFINRDGETLTTKGKVGDSLLDVVVENNLDIDGFGACEGTLACWTCHLIFEDHIYEKLDAITDEENDMLDLAYGLTDRSRLGCQICLTKSMDNMTVRVPETVADARQSIDVGKTS | 0.446 | 0.762
3 | MAAAGGARLLRAASAVLGGPAGRWLHHAGSRAGSSGLLRNRGPGGSAEASRSLSVSARARSSSEDKITVHFINRDGETLTTKGKVGDSLLDVVVENNLDIDGFGACEGTLACSFCHLIFEDHIYEKLDAITDEENDMLDLAYGLTDRSRLGCQICLTKSMDNMTVRVPETVADARQSIDVGKTS | 0.685 | 0.235
4 | MAAAGGARLLRAASAVLGGPAGRWLHHAGSRAGSSGLLRNRGPGGSAEASRSLSVSARARSSSEDKITVHFINRDGETLTTKGKVGDSLLDVVVENNLDIDGFGACEGTLACSECHLIFEDHIYEKLDAITDEENDMLDLAYGLTDRSRLGCQICLTKSMDNMTVRVPETVADARQSIDVGKTS | 0.811 | 1.09
5 | MAAAGGARLLRAASAVLGGPAGRWLHHAGSRAGSSGLLRNRGPGGSAEASRSLSVSARARSSSEDKITVHFINRDGETLTTKGKVGDSLLDVVVENNLDIDGFGACEGTLACSCCHLIFEDHIYEKLDAITDEENDMLDLAYGLTDRSRLGCQICLTKSMDNMTVRVPETVADARQSIDVGKTS | 0.158 | 0.117
6 | MAAAGGARLLRAASAVLGGPAGRWLHHAGSRAGSSGLLRNRGPGGSAEASRSLSVSARARSSSEDKITVHFINRDGETLTTKGKVGDSLLDVVVENNLDIDGFGACEGTLACSACHLIFEDHIYEKLDAITDEENDMLDLAYGLTDRSRLGCQICLTKSMDNMTVRVPETVADARQSIDVGKTS | -0.0113 | 0.0983
7 | MAAAGGARLLRAASAVLGGPAGRWLHHAGSRAGSSGLLRNRGPGGSAEASRSLSVSARARSSSEDKITVHFINRDGETLTTKGKVGDSLLDVVVENNLDIDGFGACEGTLACSDCHLIFEDHIYEKLDAITDEENDMLDLAYGLTDRSRLGCQICLTKSMDNMTVRVPETVADARQSIDVGKTS | 0.795 | 0.798
8 | MAAAGGARLLRAASAVLGGPAGRWLHHAGSRAGSSGLLRNRGPGGSAEASRSLSVSARARSSSEDKITVHFINRDGETLTTKGKVGDSLLDVVVENNLDIDGFGACEGTLACSGCHLIFEDHIYEKLDAITDEENDMLDLAYGLTDRSRLGCQICLTKSMDNMTVRVPETVADARQSIDVGKTS | -1.41 | -0.22
